According to PMC3900104:

Biological target: endogenous Miro1 of COS7 cells (monkey (endogenous in COS7))
Assay: co-IP; COS7 cells co-transfected with FLAG-TRAK1 plus Myc-DISC1 or Myc-DISC1-37W, or empty vectors; IP with Miro1 antibody (endogenous Miro1); for quantification IP buffer with 0.1% SDS

Sequence of endogenous Miro1 of COS7 cells (monkey (endogenous in COS7)) (Q8IXI2 whole entry): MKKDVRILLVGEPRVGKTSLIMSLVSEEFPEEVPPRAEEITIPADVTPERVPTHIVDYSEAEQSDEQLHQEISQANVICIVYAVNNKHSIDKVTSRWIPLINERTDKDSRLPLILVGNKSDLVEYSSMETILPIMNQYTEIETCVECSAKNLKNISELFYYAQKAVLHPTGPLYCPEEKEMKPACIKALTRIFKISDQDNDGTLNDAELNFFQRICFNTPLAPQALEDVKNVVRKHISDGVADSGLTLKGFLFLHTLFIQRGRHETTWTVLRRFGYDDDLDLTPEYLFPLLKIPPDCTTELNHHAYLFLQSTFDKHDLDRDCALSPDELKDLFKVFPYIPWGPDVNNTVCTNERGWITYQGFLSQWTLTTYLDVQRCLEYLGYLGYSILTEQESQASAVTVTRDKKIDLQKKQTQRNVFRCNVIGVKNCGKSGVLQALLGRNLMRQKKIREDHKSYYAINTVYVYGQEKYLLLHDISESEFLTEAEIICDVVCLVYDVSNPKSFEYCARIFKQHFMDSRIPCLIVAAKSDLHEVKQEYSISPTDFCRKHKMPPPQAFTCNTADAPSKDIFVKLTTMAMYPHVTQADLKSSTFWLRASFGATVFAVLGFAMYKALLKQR

B1: FLAG-tagged TRAK1 (trafficking-protein-Kinesin-binding-1), aa 2-953, in COS7 (natural protein)
chain: ALVFQFGQPVRAQPLPGLCHGKLIRTNACDVCNSTDLPEVEIISLLEEQLPHYKLRADTIYGYDHDDWLHTPLISPDANIDLTTEQIEETLKYFLLCAERVGQMTKTYNDIDAVTRLLEEKERDLELAARIGQSLLKKNKTLTERNELLEEQVEHIREEVSQLRHELSMKDELLQFYTSAAEESEPESVCSTPLKRNESSSSVQNYFHLDSLQKKLKDLEEENVVLRSEASQLKTETITYEEKEQQLVNDCVKELRDANVQIASISEELAKKTEDAARQQEEITHLLSQIVDLQKKAKACAVENEELVQHLGAAKDAQRQLTAELRELEDKYAECMEMLHEAQEELKNLRNKTMPNTTSRRYHSLGLFPMDSLAAEIEGTMRKELQLEEAESPDITHQKRVFETVRNINQVVKQRSLTPSPMNIPGSNQSSAMNSLLSSCVSTPRSSFYGSDIGNVVLDNKTNSIILETEAADLGNDERSKKPGTPGTPGSHDLETALRRLSLRRENYLSERRFFEEEQERKLQELAEKGELRSGSLTPTESIMSLGTHSRFSEFTGFSGMSFSSRSYLPEKLQIVKPLEGSATLHHWQQLAQPHLGGILDPRPGVVTKGFRTLDVDLDEVYCLNDFEEDDTGDHISLPRLATSTPVQHPETSAHHPGKCMSQTNSTFTFTTCRILHPSDELTRVTPSLNSAPTPACGSTSHLKSTPVATPCTPRRLSLAESFTNTRESTTTMSTSLGLVWLLKERGISAAVYDPQSWDRAGRGSLLHSYTPKMAVIPSTPPNSPMQTPTSSPPSFEFKCTSPPYDNFLASKPASSILREVREKNVRSSESQTDVSVSNLNLVDKVRRFGVAKVVNSGRAHVPTLTEEQGPLLCGPPGPAPALVPRGLVPEGLPLRCPTVTSAIGGLQLNSGIRRNRSFPTMVGSSMQMKAPVTLTSGILMGAKLSKQTSLR
decrease of co-IP in cells expressing Myc-DISC1-37W against cells expressing Myc-DISC1: 20%
